B1: His-MinD (B. subtilis MinD, N-terminally His-tagged) [B. subtilis] / itself (parent)
chain: MGEAIVITSGKGGVGKTTTSANLGTALAILGKRVCLVDTDIGLRNLDVVMGLENRIIYDLVDVVEGRCKMHQALVKDKRFDDLLYLMPAAQTSDKTAVAPEQIKNMVQELKQEFDYVIIDCPAGIEQGYKNAVSGADKAIVVTTPEISAVRDADRIIGLLEQEENIEPPRLVVNRIRNHLMKNGDTMDIDEIVQHLSIDLLGIVADDDEVIKASNHGEPIAMDPKNRASIAYRNIARRILGESVPLQVLEEQNKGMMAKIKSFFGVRS

Variants of: B1
Experiment: gel filtration (size-exclusion chromatography), self-association
Settings: with itself; purification buffers supplied with excess Mg2+-ADP; read off a plot

First: chain 1 G12V
Second: chain 1 K16A
The elution volume of the first is higher: 16.1 mL for the first, 15.7 mL for the second.

Work on chain 1 D40A yielded an elution volume of 15.8 mL.
